In one assay the target is 人PD-L1-His (human) (UniProt Q9NZQ7). The assay can be described thus: SPR; PD-L1-His captured by anti-His antibody on a CM5 chip, antibody as analyte 0-1000 nmol/L, 1:1 binding fit. (In general: Surface plasmon resonance follows binding to a sensor surface in real time, without labels.)
The target in assay [1] is PD-L1 (antigen of the indirect ELISA for titre; not specified). In words: indirect ELISA, ascites antibody. For orientation: ELISA stands for enzyme-linked immunosorbent assay.
PD-L1 (antigen of the indirect ELISA for titre; not specified), sequence (Q9NZQ7 whole entry): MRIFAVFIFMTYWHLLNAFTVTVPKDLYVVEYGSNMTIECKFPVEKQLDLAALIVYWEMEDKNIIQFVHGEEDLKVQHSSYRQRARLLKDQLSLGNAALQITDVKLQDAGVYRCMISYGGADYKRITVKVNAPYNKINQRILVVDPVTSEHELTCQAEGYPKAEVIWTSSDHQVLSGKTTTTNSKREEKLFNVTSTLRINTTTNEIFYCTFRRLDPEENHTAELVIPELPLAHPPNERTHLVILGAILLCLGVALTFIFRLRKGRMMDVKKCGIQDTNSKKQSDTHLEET

B1: PD-L1单克隆抗体 1A7 (antibody, part only; not given: light chain variable domain, V domains shown, part only)
VH: EVKLVESGGGLVKPGGSLKLSCAASGFTFSQTTMAWVRQIPEKRLEWVASIEEGGSCCFPDSALSRFTISRDNARNICYLQMNSLRSDDTAMYYCARAREACAGYFARWGQGTTLTVSS
The molecule B1 showed a Kd in the assay with 人PD-L1-His (human) of 4.19 nM. For the same molecule, in assay [1], the 腹水效价 (ascites titre) (titre (1:x dilution)) came to 2.56e+06.

The Kd is the free concentration of one partner at which half of the binding sites on the other are occupied at equilibrium, for simple one-to-one binding.

Values taken from patent CN113117073A.
